Experimental findings from US20200392183A1 (Memorial Sloan Kettering, published 2020) are described below.

The labels stand for the following.
B1: native WT1 peptide NQMNLGATL (SEQ ID NO:5) (peptide)
peptide: NQMNLGATL
notes: Synthetic 9-mer from Genemed Synthesis; also called native peptide; A24-native peptide

This experiment deals with T1, HLA-A0201 molecule on T2 cells (TAP-, HLA-A0201+) (human).
T1 construct: Empty, thermolabile HLA-A0201 on T2 cells; also called HLA-A2; HLA-A2 molecule
As to the kind of experiment: T2 stabilization assay, surface HLA-A2 by flow cytometry (BB7.2). The procedure: T2 cells (TAP-, HLA-A0201+) were incubated overnight at 37° C. at 1×10⁶ cells/ml in FCS-free RPMI medium supplemented with 10 ug/ml human beta-2m (Sigma, St Louis, Mo., USA) in the absence (negative control) or presence peptides at various final concentrations (50, 10 and 2 ug/ml). Brefeldin A (Sigma) at 5 ug/ml was added to the cultures for the final two hrs of incubation. Then T2 cells were washed and stained with anti-HLA-A2.1 (BB7.2) mAb conjugated to FITC for 30 min at 4° C. and followed by washing with staining buffer (PBS plus 1% FBS and 0.02% azide). The expression of the HLA-A2 on the cell surface was measured by flow cytometry on a FACScalibur (Becton Dickinson) and analyzed with FlowJo 9.6.3 software.
In general terms: Flow cytometry measures light scatter and fluorescence of single cells or particles in a stream.
With B1, the binding result is “no binding (tested: 50, 10 and 2 ug/ml tested)”.

As for NLMNLGATL (also called A24-het-1; Het24-1) [heteroclitic WT1 analogue peptide NLMNLGATL (SEQ ID NO:6)], the binding result was “binds”.

For NYMNLGATL (also called A24-het-2; Het24-2) [heteroclitic WT1 analogue peptide NYMNLGATL (SEQ ID NO:7)], the binding result is “no binding (tested: 50, 10 and 2 ug/ml tested)”.
